Article PMC3184076 (PLoS ONE, 2011)

Columns and labels:
[1] = biological target: T1, MPR.03 biotinylated peptide (HIV-1, synthetic MPER sequence, strain …); experiment: SPR; conditions: both partners purified
T1 construct: also called MPR.03 peptide; MPER peptide; source: synthetic peptide, bought: CPC Scientific Inc

MPER656 peptide = biological target: T2, MPER656 peptide (HIV-1, strain  (residues …)); experiment: SPR; conditions: both partners purified
T2 construct: also called wild type MPER656 peptide
T2 chain: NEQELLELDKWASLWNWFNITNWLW

MPER26 peptide = MPER26 peptide (HIV-1, strain  (residues …, biotin on the N-terminus)); experiment: SPR; conditions: both partners purified
JR-FL gp140 = biological target: T3, JR-FL gp140 (HIV-1 subtype B, JR-FL, UniProt Q75760, strain); experiment: ELISA
T3 construct: also called JR-FL gp140 envelope protein; source: generated as described [41]

Centromere B autoantigen = biological target: T4, Centromere B autoantigen (Homo sapiens (assumed), UniProt P07199); experiment: AtheNA Multi-Lyte ANA II Test Kit (autoantigen immunoassay); kit of Zeus Scientific, per the manufacturer's instructions
T4 construct: also called centromere B autoantigens
T4 sequence (P07199 whole entry): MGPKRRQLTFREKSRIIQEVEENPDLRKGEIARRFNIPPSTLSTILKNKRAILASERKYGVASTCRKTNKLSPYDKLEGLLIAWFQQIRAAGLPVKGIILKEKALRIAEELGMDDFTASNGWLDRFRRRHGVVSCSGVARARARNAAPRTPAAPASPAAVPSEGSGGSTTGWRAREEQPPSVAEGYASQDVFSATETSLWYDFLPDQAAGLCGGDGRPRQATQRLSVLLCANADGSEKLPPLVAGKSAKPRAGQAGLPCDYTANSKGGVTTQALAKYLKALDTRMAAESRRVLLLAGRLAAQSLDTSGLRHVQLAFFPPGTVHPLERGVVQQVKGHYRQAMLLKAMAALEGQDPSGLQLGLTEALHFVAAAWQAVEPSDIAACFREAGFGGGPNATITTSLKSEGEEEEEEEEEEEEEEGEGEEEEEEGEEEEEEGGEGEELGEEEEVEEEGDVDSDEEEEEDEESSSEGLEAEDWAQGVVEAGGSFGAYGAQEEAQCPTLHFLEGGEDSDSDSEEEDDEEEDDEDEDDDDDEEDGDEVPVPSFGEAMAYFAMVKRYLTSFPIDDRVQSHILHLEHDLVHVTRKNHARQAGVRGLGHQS

B1: CAP206-CH12 recombinant human monoclonal antibody (antibody, V domains shown)
VH: QVQLVQSGAEVKKPGSSVKLSCKASGGTFGSYSVTWVRQAPGQTFEWVGRIVPWVGVPNYAPKFQGRVTITADKSSTVYMELTSLRFEDTAVYYCATAYEASGLSYYYYMDDWGKGTTVTVSS
VL: EIVLTQSPGTLSLSPGERATLSCRASQSVTSSYLAWFRHKPGQAPRLLIYGASYRGTGIPDRISGSGSGTDFTLTISRLEPEDFAVYYCQHYGGSPGMYTFGQGTRLEIK
notes: also called CAP206-CH12 mAb; CAP-206-CH12 mAb
[1]
  Kd: 7.3 nM
MPER656 peptide
  Kd: 5.15 nM
MPER26 peptide
  Kd: 4.95 nM
JR-FL gp140
  binding result: no binding
Centromere B autoantigen
  binding result: binds
